The results in this text go back to article PMC4357533 (Journal of molecular biology, 2015).

Changes are numbered by the printed parent chain. Numbers in names are those of the source.

B1: Sis1 single alteration variant K199N (natural protein, S. cerevisiae, UniProt P25294 1-352, looked up)
chain: MVKETKLYDLLGVSPSANEQELKKGYRKAALKYHPDKPTGDTEKFKEISEAFEILNDPQKREIYDQYGLEAARSGGPSFGPGGPGGAGGAGGFPGGAGGFSGGHAFSNEDAFNIFSQFFGGSSPFGGADDSGFSFSSYPSGGGAGMGGMPGGMGGMHGGMGGMPGGFRSASSSPTYPEEETVQVNLPVSLEDLFVGKKNSFKIGRKGPHGASEKTQIDIQLKPGWKAGTKITYKNQGDYNPQTGRRKTLQFVIQEKSHPNFKRDGDDLIYTLPLSFKESLLGFSKTIQTIDGRTLPLSRVQPVQPSQTSTYPGQGMPTPKNPSQRGNLIVKYKVDYPISLNDAQKRAIDENF
B2: Sis1 single alteration variant K202N (natural protein, S. cerevisiae, UniProt P25294 1-352, looked up)
chain: B1 chain with N199K, K202N
B3: Sis1 single alteration variant K214N (natural protein, S. cerevisiae, UniProt P25294 1-352, looked up)
chain: B1 chain with N199K, K214N

For the assay, the target named is Ssa1 Hsp70 (S. cerevisiae, UniProt P10591 1-642). Put plainly: ELISA. In general terms: In an ELISA, binding on a coated surface is turned into a signal by an enzyme label.
Chain of Ssa1 Hsp70 (P10591 whole entry): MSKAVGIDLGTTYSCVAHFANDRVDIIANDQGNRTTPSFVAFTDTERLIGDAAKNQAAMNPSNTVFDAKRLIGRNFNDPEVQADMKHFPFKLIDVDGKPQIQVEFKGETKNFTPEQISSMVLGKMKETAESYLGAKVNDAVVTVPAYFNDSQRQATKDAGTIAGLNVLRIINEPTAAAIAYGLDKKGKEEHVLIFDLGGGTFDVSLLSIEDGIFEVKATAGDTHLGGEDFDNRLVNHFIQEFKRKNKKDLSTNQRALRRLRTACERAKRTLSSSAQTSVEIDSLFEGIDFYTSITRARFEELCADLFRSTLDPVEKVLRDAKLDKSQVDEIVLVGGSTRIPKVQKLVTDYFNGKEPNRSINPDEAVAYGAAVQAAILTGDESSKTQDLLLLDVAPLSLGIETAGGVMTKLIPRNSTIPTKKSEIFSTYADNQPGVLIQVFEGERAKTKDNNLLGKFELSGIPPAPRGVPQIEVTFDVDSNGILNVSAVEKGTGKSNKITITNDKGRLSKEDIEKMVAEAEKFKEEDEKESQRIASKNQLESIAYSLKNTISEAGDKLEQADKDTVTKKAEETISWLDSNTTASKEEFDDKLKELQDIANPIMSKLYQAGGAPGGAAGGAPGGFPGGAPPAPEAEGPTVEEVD
B1: the binding result is on record as “binds”.

In the case of B2, the binding result was “binds”. With B3 the entry was “binds”.
